Data taken from US7101845 (JOSLIN DIABETES CENTER, dated 2006).
Positions of bridges follow the written chain, without caps; N, C: chain ends.

Molecular target: MCH receptor (MCHR1) (mouse, UniProt Q8JZL2 1-353)
Test: cell-based or functional assay

Chain of MCH receptor (MCHR1) (Q8JZL2 whole entry): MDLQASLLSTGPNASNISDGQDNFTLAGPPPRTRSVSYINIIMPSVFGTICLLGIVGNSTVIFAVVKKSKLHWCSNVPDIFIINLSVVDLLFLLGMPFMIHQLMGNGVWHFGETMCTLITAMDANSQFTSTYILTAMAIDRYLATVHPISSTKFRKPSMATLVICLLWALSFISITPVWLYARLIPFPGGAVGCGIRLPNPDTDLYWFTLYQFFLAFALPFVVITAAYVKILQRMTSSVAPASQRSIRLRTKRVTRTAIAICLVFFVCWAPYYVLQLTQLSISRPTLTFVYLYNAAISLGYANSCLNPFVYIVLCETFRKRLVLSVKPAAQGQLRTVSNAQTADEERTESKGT

insulin secretion from islets of MCH over expressing mice: 4 fold | insulin secretion from overnight cultured islets of C57B1/6J mice, 100 nM MCH, 30 min, 11.1 mM glucose: 2.4 fold
Binder: H-DFDMLRCMLGRVYRPCWQV-OH (disulfide 7-16 (inferred)) [Melanocyte concentrating hormone (MCH)]
